Measurements taken from article PMC7260724, “ABAS1 from soybean is a 1R-subtype MYB transcriptional repressor that enhances ABA sensitivity”.

T1: GST-GmABAS1 (Glycine max/soja (soybean; the cloned …, UniProt A0A3Q9B5G2 1-289)
T1 sequence: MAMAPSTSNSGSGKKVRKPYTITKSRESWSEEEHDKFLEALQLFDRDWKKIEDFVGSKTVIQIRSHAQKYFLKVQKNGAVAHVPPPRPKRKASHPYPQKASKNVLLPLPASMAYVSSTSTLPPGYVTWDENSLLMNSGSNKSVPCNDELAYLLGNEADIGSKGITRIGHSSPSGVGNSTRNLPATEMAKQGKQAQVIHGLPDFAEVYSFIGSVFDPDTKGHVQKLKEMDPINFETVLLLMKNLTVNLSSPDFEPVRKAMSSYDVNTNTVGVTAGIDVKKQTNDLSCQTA


How the values were obtained:
GST-GmABAS1 [1] = target: T1, GST-GmABAS1; assay: EMSA; 150 mM KCl, 10 mM Tris pH 7.4, 0.1 mM EDTA, 0.1 mM DTT, EDTA-free protease inhibitor; room temperature 20 min; 6% (non-competitive) or 10% (competitive) acrylamide gel in TBE; conditions: protein: recombinant; tags: N-terminal GST (pGEX-4T-1); label: none (SYBR Green stain); blunt
GST-GmABAS1 [2] = target: T1, GST-GmABAS1; assay: EMSA; 72 pmol protein, 10 pmol probe; 150 mM KCl, 10 mM Tris pH 7.4, 0.1 mM EDTA, 0.1 mM DTT, EDTA-free protease inhibitor; room temperature 20 min; 6% (non-competitive) or 10% (competitive) acrylamide gel in TBE; conditions: protein: recombinant; tags: N-terminal GST (pGEX-4T-1); blunt

Binder	binding result (GST-GmABAS1 [1])	binding result (GST-GmABAS1 [2])
Glyma.01G060300 native probe (dsDNA) DNA 1: TGAAAAATCGTGTCAGTGTCGCCACGTG DNA 2: CACGTGGCGACACTGACACGATTTTTCA	binds	–
Glyma.01G060300 native probe, 6-FAM (dsDNA) DNA 1: TGAAAAATCGTGTCAGTGTCGCCACGTG DNA 2: CACGTGGCGACACTGACACGATTTTTCA	–	binds
